Patent US20040091855A1, “Method for production of antivirals by use of HIV-derived HR1 peptides, and trimers formed therefrom” (priority 2002, published 2004)

How the values were obtained:
[1] = target: HIV-1 gp41 of strain HIV IIIB (on infectious virus) (HIV-1 strain HIVIIIB), P04578; assay: cell-based or functional assay
[2] = target: synthetic peptide having the amino acid sequence of SEQ ID NO:36 (trimers formed therefrom) (HIV-1 (HIVIIIB)); assay: fluorescence polarization competition; 50 nM trimers of SEQ ID NO:36, 0.2 nM fluorescein-labeled HR2 peptide as competitor
[3] = target: HR2 peptide having the amino acid sequence of SEQ ID NO:33 (HIV-1); assay: surface plasmon resonance (Biacore protein chip assay)

QQQNNLLRAIEAQQHLLQLTVWGIKQLQARILAVERYLKDQ (modifications not checked) [HR1 peptide of native sequence having the amino acid sequence of SEQ ID NO:27]
Antiviral activity vs. HIV IIIB, IC50 (MAGI/cMAGI infectivity assay) [1]: 4.69 µg/mL
Antiviral activity vs. HIV IIIB, IC90 (MAGI/cMAGI infectivity assay) [1]: 23.2 µg/mL

QQQNNLLRAIEAQQHLLQLTAWGIKQLQARILAVERYLKDQ (modifications not checked) [synthetic peptide having the amino acid sequence of SEQ ID NO:29]
Antiviral activity vs. HIV IIIB, IC50 (MAGI/cMAGI infectivity assay) [1]: 2.81 µg/mL
Antiviral activity vs. HIV IIIB, IC90 (MAGI/cMAGI infectivity assay) [1]: 5.86 µg/mL

QQQNNLLRAIEAQQHLLQLTVFGIKQLQARILAVERYLKDQ (modifications not checked) [synthetic peptide having the amino acid sequence of SEQ ID NO:43]
Antiviral activity vs. HIV IIIB, IC50 (MAGI/cMAGI infectivity assay) [1]: 1.34 µg/mL
Antiviral activity vs. HIV IIIB, IC90 (MAGI/cMAGI infectivity assay) [1]: 3.81 µg/mL

WMEWDREINNYTSLIHSLIEESQNQQEKNEQELLEL (modifications not checked) [HR2 peptide having the amino acid sequence of SEQ ID NO:33]
IC50 [2]: 68 nM

QARQLVSGLVQQQNNILRALEATQHAVQALVWGVKQLQARVLALERYIK (modifications not checked) [synthetic peptide having the amino acid sequence of SEQ ID NO:35]
Antiviral activity against HIV IIIB, IC50 (MAGI/cMAGI infectivity assay) [1]: 0.14 µg/mL
Antiviral activity against HIV IIIB, IC90 (MAGI/cMAGI infectivity assay) [1]: 0.69 µg/mL
Kd [3]: 21.8 nM

QARQLVSGLVQQQNNILRALEATQHAVQALVWGVRQLQARVLALERYIK (modifications not checked) [synthetic peptide having the amino acid sequence of SEQ ID NO:37]
Antiviral activity against HIV IIIB, IC50 (MAGI/cMAGI infectivity assay) [1]: < 0.78 µg/mL

QARQLVSGLVQQQNNILRALEATQHLVQLLVWGVKQLQARVLALERYIK (modifications not checked) [peptide having the amino acid sequence of SEQ ID NO:41]
Antiviral activity against HIV IIIB, IC50 (MAGI/cMAGI infectivity assay) [1]: 3.89 µg/mL
Antiviral activity against HIV IIIB, IC90 (MAGI/cMAGI infectivity assay) [1]: 14.5 µg/mL

B1: synthetic peptide having the amino acid sequence of SEQ ID NO:38 (peptide)
peptide: QARQLLSGIVQQQNNLLRAIEATQHAVQALVWGVKQLQARVLALERYIKDQ
modifications: not checked
Antiviral activity against HIV IIIB, IC50 (MAGI/cMAGI infectivity assay) [1]: 0.18 µg/mL
Antiviral activity against HIV IIIB, IC90 (MAGI/cMAGI infectivity assay) [1]: 0.88 µg/mL

B2: synthetic peptide having the amino acid sequence of SEQ ID NO:39 (peptide)
peptide: QARQLVSGLVQQQNNILRALEAQQHALQATVWGIKQLQARVLALERYIKDQ
modifications: not checked
Antiviral activity against HIV IIIB, IC50 (MAGI/cMAGI infectivity assay) [1]: 0.26 µg/mL
Antiviral activity against HIV IIIB, IC90 (MAGI/cMAGI infectivity assay) [1]: 1.2 µg/mL
